From patent US7795217B2, “Methods and compositions for cell-cycle regulation” (priority 2005, dated 2010)

T1: KAP (Homo sapiens, UniProt Q16667)
T1 construct: Full-length KAP protein was coupled to a sensor chip CM-5 shell; made in house
T1 sequence (Q16667 1-212): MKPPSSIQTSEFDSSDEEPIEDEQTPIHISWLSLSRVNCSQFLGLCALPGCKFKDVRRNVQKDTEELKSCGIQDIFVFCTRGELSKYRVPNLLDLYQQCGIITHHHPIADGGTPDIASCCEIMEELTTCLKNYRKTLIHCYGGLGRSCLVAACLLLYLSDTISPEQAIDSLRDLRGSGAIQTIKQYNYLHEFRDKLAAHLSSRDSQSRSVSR

T2: KAP phosphatase (Homo sapiens, UniProt Q16667)
T2 construct: made in house
T2 sequence (Q16667 1-212): T1 sequence (Q16667 1-212)

B1: HTm4: Recombinant human HTm4 (MS4A3) full-length protein purified from E. coli, His tag cleaved (protein, listed as Homo sapiens)
chain: MASHEVDNAELGSASAHGTPGSEAGPEELNTSVYQPIDGSPDYQKAKLQVLGAIQILNAAMILALGVFLGSLQYPYHFQKHFFFFTFYTGYPIWGAVFFCSSGTLSVVAGIKPTRTWIQNSFGMNIASATIALVGTAFLSLNIAVNIQSLRSCHSSSESPDLCNYMGSISNGMVSLLLILTLLELCVTISTIAMWCNANCCNSREEISSPPNSV

Experiments:
KAP phosphatase [1] = molecular target: T3, KAP phosphatase (Homo sapiens, UniProt Q16667); assay: KAP phosphatase activity assay, hydrolysis of pNPP; type: biochemical
Protocol: KAP phosphatase activity was examined by the detection of hydrolysis of p-nitrophenyl phosphate (pNPP) (WAKO) as described previously (Song, H., Hanlon, N., Brown, N. R., Noble, M. E., Johnson, L. N., and Barford, D. (2001) Mol. Cell. 7, 615-626). The time course of phosphatase activity for KAP was examined. 20 μl of reaction mixture containing 50 mM Tris-HCl, pH 7.5, 0.15 M NaCl, 2 mM DTT, 0.5 mM EDTA, 3 mM pNPP, 40 μM KAP, 4 μM cdk cyclin A (Upstate Biotechnology), and 20 μM HTm4 was incubated at 30° C. for the indicated times. The reaction was halted by the addition of 0.1 M NaOH. The phosphatase activity in 5 μl of each sample was measured as A410. To investigate the effect of HTm4 on KAP, KAP phosphatase activity was assessed with different HTm4 concentrations in the presence of pNPP. Reaction velocity was measured in the presence of 0.0025-20 μM HTm4.
(§1) 20 μl of reaction mixture containing 50 mM Tris-HCl, pH 7.5, 0.15 M NaCl, 2 mM DTT, 0.5 mM EDTA, 3 mM pNPP, 40 μM KAP, 4 μM cdk2.cyclin A, and 20 μM HTm4 was incubated at 30° C. for the indicated times. The reaction was halted by the addition of 0.1 M NaOH. The phosphatase activity in 5 μl of each sample was measured at 410 nm. […] KAP phosphatase activity was assessed in the presence of increasing amounts of HTm4 using pNPP as the KAP substrate. The reaction velocity was measured in the presence of 0.0025-20 μM HTm4. All reaction mixtures contained 40 μM KAP and 4 μM active cdk2.cyclin A. Reactions were repeated in triplicate. Their average values and standard deviations are shown. […] KAP phosphatase activity was assessed using the Ser/Thr Assay Kit 1 with different concentrations of active cdk2.cyclin A (from 4 to 20 μM) as the substrate in the presence or absence of 40 μM HTm4. […] KAP phosphatase activity was assessed using the Ser/Thr Assay Kit 1 with different concentrations of active cdk2.cyclin A (from 4 to 20 μM) as the substrate in the presence or absence of 40 μM HTm4.

KAP [2] = molecular target: T1, KAP; assay: Surface plasmon resonance (BioSensor Biacore) protein interaction assay; type: binding; settings: for binding to KAP-coupled sensor chip (increase in mass): versus uncoupled or nonspecifically coupled chips
Protocol: The immobilization of proteins to sensor chips (CM-5 chip) was performed using a carbodiimide covalent linkage protocol (Amersham Biosciences). KAP was coupled to the sensor chip at 2,800 resonance units (RU). Nonspecific human immunoglobin was coupled to the surface of the sensor chip (anti-β 2m antibody BBM.1) at 2,900 RU. Protein interaction assays were carried out using the BioSensor Biacore 2000 (Biacore). An HTm4 C-terminal peptide composed of 22 amino acids ([…] SEQ ID NO:3) was synthesized. Either full-length HTm4 protein (20 μM), or HTm4 C-terminal peptide (1 mM) in 50 mM HEPES containing 1 mM EDTA, 1 mM DTT, 5% glycerol, and 0.1% Tween 20 was examined at a flow rate of 10 μl/min.
Surface plasmon resonance was used to detect direct binding of purified HTm4 to KAP. Full-length KAP protein was coupled to a sensor chip CM-5 shell (Amersham Biosciences).
The interactions of HTm4 with immobilized proteins were analyzed on a sensor chip (CM-5) cell. KAP was coupled to the surface of the sensor chip at 2,800 RU; nonspecific human immunoglobulin (NS) was coupled to the surface of the sensor chip (anti-β2m antibody BBM.1) at 2,900 RU; UC, uncoupled sensor chip. Binding of 20 μM full-length HTm4 protein in 50 mM HEPES containing 1 mM EDTA, 1 mM DTT, 5% glycerol, and 0.1% Tween 20 was examined at a flow rate of 10 μl/min. […] The interactions of HTm4 with immobilized proteins were analyzed on a sensor chip (CM-5) cell. KAP was coupled to the surface of the sensor chip at 2,800 RU; nonspecific human immunoglobulin was coupled on the surface of the sensor chip (anti-β 2m antibody BBM.1) at 2,900 RU. Binding of 1 mM HTm4 C-terminal peptide in 50 mM HEPES containing 1 mM EDTA, 1 mM DTT, 5% glycerol, and 0.1% Tween 20 was examined at a flow rate of 10 μl/min. Responses from uncoupled cells were subtracted.

KAP [3] = molecular target: T1, KAP; assay: Circular dichroism spectroscopy of KAP; settings: 5 μM KAP, 50 μM HTm4 C-peptide, 250 to 320 nm
Protocol: Circular Dichroism (CD) spectroscopic measurements were performed on a Jasco J-700 (Jasco, Japan). Spectra measurements were recorded from 250 to 320 nm. The spectra change of KAP was measured by comparing two different KAP samples in the same solution (20 mM Tris-HCl, pH 7.2, 0.15 M NaCl). Sample A contained 5 μM KAP and an excess amount of HTm4 C-peptide (50 μM). The contents of sample B were identical to those in sample A, except for HTm4 C-peptide. The difference in spectra was further converted to parameter (mean residue ellipticity) and plotted on the graph in FIG. 4.
Spectra measurements were recorded from 250 to 320 nm. The spectra change of KAP was measured by comparing two different KAP samples in the same solution (20 mM Tris-HCl, pH 7.2, 0.15 M NaCl). Sample A contains 5 μM KAP and an excess amount of HTm4 C-peptide (50 μM). Sample B was formulated as Sample A, with the exception of the HTm4 C-peptide. The difference in spectra was further converted to parameter (mean residue ellipticity) and plotted.

[4] = molecular target: KAP.cdk2.cyclin A complex (Homo sapiens, UniProt Q16667); assay: Cyclin A dissociation assay; type: biochemical; settings: 1 or 10 μM HTm4 without His tag, His-tagged KAP pull-down
Protocol: The status of the cdk2.cyclin A complex was examined in the presence and absence of HTm4. […] The bound fractions were resolved by SDS-PAGE and Western blotted for the presence of cyclin A (Santa Cruz Biotechnology). An alkaline phosphatase conjugated to anti-rabbit IgG (EY Laboratory) was used to visualize the amount of bound cyclin A present in the KAP cdk2 complex. […] After incubating at room temperature for 5 min, either 10 μl of 10 μM HTm4 (without His tag) or its buffer was added to the reaction mixture. After incubating at room temperature for 5 min, 5 μl of nickel magnet beads was added to each mixture. […] The gel was stained with a silver staining kit (ATTO).
After that, 5 μl of nickel magnet beads was added. Bound fractions were electrophoresed by SDS-PAGE and then detected by Western blotting with anti-cyclin A antibody as the primary antibody, and alkaline phosphatase-conjugated anti-rabbit IgG was used as the secondary antibody. The band of cyclin A is indicated with an arrow. […] After incubation at room temperature for 5 min, 10 μl of 10 μM HTm4 (without His tag) or its buffer was added to the mixture and allowed to incubate at room temperature for 5 mins. 5 μl of nickel magnet beads was added to each mixture. […] The gel was then silver stained. Bands of cyclin A, cdk2, and KAP are indicated with arrows.

KAP phosphatase [5] = molecular target: T2, KAP phosphatase; assay: KAP dephosphorylation of peptide or protein substrates (Ser/Thr Phosphatase Assay Kit 1); type: biochemical; settings: 30 min at 30° C.
Protocol: KAP dephosphorylation of phosphorylated proteins or peptide substrates was examined using the Ser/Thr Phosphatase Assay Kit 1 (Upstate Biotechnology) according to the manufacturer's instructions. Phosphorylated Thr^160 of cdk2 and K-R-pT-I-R-R peptide were used as substrates for the assay. Concentrations of KAP and HTm4 were both 20 μM; concentrations of p-cdk2 and peptide substrates (K-R-pT-I-R-R) were 10 and 25 μM, respectively. Reactions were performed in pNPP Ser/Thr Assay Buffer, containing 50 mM Tris-HCl, pH 7.0, and 100 μM CaCl2. To examine the importance of the HTm4 C-terminal region and to confirm the KAP phosphatase activity enhancement effect of HTm4, an HTm4 C-terminal peptide composed of 22 amino acids ([…] SEQ ID NO:3) was synthesized. The phosphatase enhancement activity of the HTm4 C-terminal region was examined using the assay protocol described above.
KAP dephosphorylation of phosphorylated proteins or peptide substrates was examined using the Ser/Thr Phosphatase Assay Kit 1 according to the manufacturer's instructions. Phosphorylated Thr^160 of cdk2 (p-cdk2) and K-R-pT-I-R-R peptides (SEQ ID NO:4) were used as substrates for the assay. […]
Phosphorylated threonine 160 from cdk2.cyclin A, active, and phosphopeptide (K-R-pT-I-R-R) were used as substrates to assess KAP activity. […] The reaction was allowed to proceed for 30 min at 30° C., and absorbance was measured at 650 nm.

KAP phosphatase [6] = molecular target: T3, KAP phosphatase; assay: Kinetic measurements of KAP phosphatase with active cdk2.cyclin A as substrate (Lineweaver-Burk plot); type: biochemical; settings: 40 μM HTm4, active cdk2.cyclin A 4 to 20 μM as substrate
Protocol: To investigate the effect of HTm4 on KAP, the initial reaction velocity of KAP was assessed using different concentrations of active cdk2.cyclin A as the substrate in the presence or absence of HTm4. The results were analyzed further using a Lineweaver-Burk plot.
as §1

Molecule | enhancement effect on KAP phosphatase activity compared with HTm4 wild-type protein (KAP phosphatase [1]; C-terminal peptide at 0.1 mM, pNPP substrate) | binding to KAP-coupled sensor chip (increase in mass) (KAP [2]; 1 mM HTm4 C-terminal peptide, flow rate 10 μl/min) | CD difference spectrum of KAP with versus without C-peptide (KAP [3]) | dissociation of cyclin A from the KAP.cdk2.cyclin A complex [4] | KAP phosphatase activity toward pNPP substrate (KAP phosphatase [1]; 20 μM HTm4, wild-type KAP, 4 μM active cdk2.cyclin A) | effect of increasing HTm4 on KAP phosphatase activity (reaction velocity) (KAP phosphatase [1]; 0.0025-20 μM HTm4, pNPP substrate, 40 μM KAP, 4 μM active cdk2.cyclin A) | binding to KAP-coupled sensor chip (increase in mass) (KAP [2]; 20 μM full-length HTm4, flow rate 10 μl/min) | KAP/HTm4 selective binding after premixing HTm4 with KAP (KAP [2]; premixed with KAP, data not shown) | increase of dephosphorylating activity of KAP toward phosphorylated cdk2 (KAP phosphatase [5]; 20 μM KAP and HTm4, 10 μM p-cdk2 in the cdk2.cyclin A complex) | KAP dephosphorylation of synthesized phosphopeptide K-R-pT-I-R-R (KAP phosphatase [5]; 20 μM KAP and HTm4, 25 μM peptide substrate) | Vmax of KAP phosphatase activity in the presence of HTm4 (KAP phosphatase [6]) | Km (KAP phosphatase [6]; read-out: Km of KAP phosphatase activity in the presence of HTm4)
CNANCCNSREEISSPPNSV (Synthetic HTm4 C-terminal Peptide) [HTm4 C-peptide] | comparable enhancement effect | immediate increase in mass was observed | spectral change was found at 270-280 nm |  |  |  |  |  |  |  |  | 
B1 |  |  |  | dissociated from the complex in a dose-dependent manner | significantly enhanced | linearly increased | immediate increase in mass was observed | abolished | more than 6 fold | potentiates dephosphorylation | 17.5 nM/min | 8.33 µM
